Test results reported in patent US7566555B2, “Method of expressing proteins comprising non-naturally-occurring amino acids” (Riken, priority 2002, dated 2009).

How the values were obtained:
CHO cells = test: Effect on growth of CHO cells
Procedure: Next, 3-iodo-L-tyrosine was added to the medium to a final concentration of 0.3 mM (L-tyrosine was present at twice that concentration (FIG. 5B)).

[1] = test system: amber mutation in ras(Am); test: Amber suppression of ras(Am) in CHO cells, western blotting with anti-FLAG antibody; type: cell-based, Chinese hamster; conditions: for suppression efficiency (comparison): Ras and EGFR amber mutants, tetracycline 1 μg/mL
Procedure: Transfection was carried out using 0.5 to 2 μg of DNA for each plasmid per 35 mm plate in accordance with the Lipofect AMINE 2000 (Gibco BRL) method. Opti-MEM 1 (Gibco BRL) was used for the medium. Cell extracts were prepared 24 hours after transfection and applied to SDS-PAGE followed by western blotting using anti-FLAG2 antibody (Sigma) and the ECL+ Immunodetection System (Amersham Pharmacia Biotech). Band intensity was measured using the LAS-1000 plus image analyzer (Fuji Film).
In order to analyze amber suppression, the tyrosine codon at position 32 in a synthetic ras gene truncated from the wild type c-Ha-Ras was mutated to an amber codon. In order to detect expression, a FLAG peptide tag was added to the C-terminals of the ras genes, ras(WT) and its amber mutant ras(Am), and to the C-terminal of E. coli TyrRS.
These ras gene were introduced into CHO cells, and their products were detected by western blotting of cell extracts using anti-FLAG antibody (FIG. 4A).

TyrRS = test: Aminoacylation reaction of TyrRS variants, inorganic phosphate detected with Biomol Green; type: biochemical, E. coli; set-up: key: +++: the activity detected with an enzyme concentration of 0.50 μM; ++: the activity detected with an enzyme concentration of 0.25 μM; the activity detected with an enzyme concentration of 0.25 μM, although the activity is lower than that represented by “++”; −: no activity detected with an enzyme concentration of 0.25 μM
Source text: More preferably, a mutant TyrRS can be used in which the location corresponding to tyrosine (Y) at position 37 is substituted with valine (V), leucine (L), isoleucine (I) or alanine (A), and the location corresponding to glutamine (Q) at position 195 is substituted with alanine (A), cysteine (C), serine (S) or asparagine (N).

N[C@@H](Cc1ccc(O)c(I)c1)C(=O)O [3-iodo-L-tyrosine, reference compound]
effect on cell reproduction (CHO cells; 0.3 mM in the medium): hardly any effect on cell reproduction

B1: TetBst0×1: tet02 sequence immediately before the suppressor tRNA gene, SEQ. ID NO. 30, single copy (nucleic acid)
DNA: TCTCCCTATCAGTGATAGAGATCGGAGGGGTAGCGAAGTGGCTAAACGCGGCGGACTCTAAATCCGCTCCCTTTGGGTTCGGCGGTTCGAATCCGTCCCCCTCCAGACAAGTGCGGTTTTTTTCTCCAGCTCCCG
modifications: a sequence of one of the induced expression systems prepared in Example 2 (TetBst0)
notes: ID NO; 30, single copy
suppression when tetracycline is not added ([1]; no tetracycline): nearly complete absence of suppression

B2: TetBst2: tet02 sequence 20 bases upstream from the suppressor tRNA gene, SEQ. ID NO. 32 (nucleic acid)
DNA: TCTCCCTATCAGTGATAGAGATCCGCCGACACACGTACACGTCGGAGGGGTAGCGAAGTGGCTAAACGCGGCGGACTCTAAATCCGCTCCCTTTGGGTTCGGCGGTTCGAATCCGTCCCCCTCCAGACAAGTGCGGTTTTTTTCTCCAGCTCCCG
modifications: a sequence of one of the induced expression systems prepared in Example 2 (TetBst2)
suppression efficiency (comparison) [1]: lower than that of TetBst1

B3: Wild Type (Y37, Q195): TyrRS (wild type) of E. coli, SEQ. ID NO. 29 (protein, listed as Escherichia coli)
chain: MASSNLIKQLQERGLVAQVTDEEALAERLAQGPIALYCGFDPTADSLHLGHLVPLLCLKRFQQAGHKPVALVGGATGLIGDPSFKAAERKLNTEETVQEWVDKIRKQVAPFLDFDCGENSAIAANNYDWFGNMNVLTFLRDIGKHFSVNQMINKEAVKQRLNREDQGISFTEFSYNLLQGYDFACLNKQYGVVLQIGGSDQWGNITSGIDLTRRLHQNQVFGLTVPLITKADGTKFGKTEGGAVWLDPKKTSPYKFYQFWINTADADVYRFLKFFTFMSIEEINALEEEDKNSGKAPRAQYVLAEQVTRLVHGEEGLQAAKRITECLFSGSLSALSEADFEQLAQDGVPMVEMEKGADLMQALVDSELQPSRGQARKTIASNAITINGEKQSDPEYFFKEEDRLFGRFTLLRRGKKNYCLICWK
Activity of TyrRS variants with 3-iodo-L-tyrosine (TyrRS; amino acid: 3-iodo-L-tyrosine): −
Activity of TyrRS variants with Tyrosine (TyrRS; amino acid: Tyrosine): +++
effect on growth rate of CHO cells (CHO cells; expression from a transiently introduced plasmid): hardly affect the growth rate

B4: TetBst1: tet02 sequence 10 bases upstream from the suppressor tRNA gene, SEQ. ID NO. 31 (nucleic acid)
DNA: TCTCCCTATCAGTGATAGAGATCCGTACACGTCGGAGGGGTAGCGAAGTGGCTAAACGCGGCGGACTCTAAATCCGCTCCCTTTGGGTTCGGCGGTTCGAATCCGTCCCCCTCCAGACAAGTGCGGTTTTTTTCTCCAGCTCCCG
modifications: a sequence of one of the induced expression systems prepared in Example 1 (TetBst1)
suppression efficiency (comparison) [1]: higher suppression efficiency than TetBst0
